Reference: patent US9081017 (CAMBRIDGE ENTERPRISE, dated 2015)

Target: T1, TRAF2 (mouse, endogenous) (mouse, UniProt P39429 2-501)
T1 construct: Endogenous protein; also called TNF-receptor associated factor 2
T1 sequence (looked up): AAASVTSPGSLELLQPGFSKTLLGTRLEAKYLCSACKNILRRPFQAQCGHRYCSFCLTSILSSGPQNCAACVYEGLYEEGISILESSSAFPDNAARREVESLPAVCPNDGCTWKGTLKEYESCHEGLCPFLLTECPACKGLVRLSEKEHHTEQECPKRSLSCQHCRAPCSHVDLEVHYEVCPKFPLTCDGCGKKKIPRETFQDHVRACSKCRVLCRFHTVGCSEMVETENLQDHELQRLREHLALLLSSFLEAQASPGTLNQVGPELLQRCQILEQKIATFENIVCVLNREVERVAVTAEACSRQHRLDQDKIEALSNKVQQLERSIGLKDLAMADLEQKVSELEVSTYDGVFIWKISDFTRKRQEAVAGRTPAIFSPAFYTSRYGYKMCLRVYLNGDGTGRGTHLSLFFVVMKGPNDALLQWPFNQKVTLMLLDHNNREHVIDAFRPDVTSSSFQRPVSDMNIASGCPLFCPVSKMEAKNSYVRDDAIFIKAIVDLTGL
Assay: co-immunoprecipitation from ischemic hindlimb muscle of C57BL/6 mice

binding result: binds
B1: TNFR2 (mouse, endogenous in hindlimb muscle of C57BL/6 mice) (receptor, UniProt P25119 23-474, looked up)
chain: VPAQVVLTPYKPEPGYECQISQEYYDRKAQMCCAKCPPGQYVKHFCNKTSDTVCADCEASMYTQVWNQFRTCLSCSSSCTTDQVEIRACTKQQNRVCACEAGRYCALKTHSGSCRQCMRLSKCGPGFGVASSRAPNGNVLCKACAPGTFSDTTSSTDVCRPHRICSILAIPGNASTDAVCAPESPTLSAIPRTLYVSQPEPTRSQPLDQEPGPSQTPSILTSLGSTPIIEQSTKGGISLPIGLIVGVTSLGLLMLGLVNCIILVQRKKKPSCLQRDAKVPHVPDEKSQDAVGLEQQHLLTTAPSSSSSSLESSASAGDRRAPPGGHPQARVMAEAQGFQEARASSRISDSSHGSHGTHVNVTCIVNVCSSSDHSSQCSSQASATVGDPDAKPSASPKDEQVPFSQEECPSQSPCETTETLQSHEKPLPLGVPDMGMKPSQAGWFDQIAVKVA
notes: Endogenous protein immunoprecipitated from muscle tissue; also called tumor necrosis factor receptor 2
